In one experiment the test system is ACE. Particulars: previously reported peptides; cited from earlier work. From the text: The potent ACE inhibitory peptides are generally short chains of 3–6 amino acids, with a Ser, Leu, or Thr at the C-terminal, which plays an important role in this activity. The ACE inhibitory peptides identified in this study, except for IKEVTER, seem to be of a larger size than those of inhibitory peptides described in previous reports. ACE inhibitory peptides have been previously reported from meat and seafood vertebrate specimens, and their IC50 values have been reported.

For experiment [1], the target named is T1, ACE, a dipeptidyl carboxypeptidase (EC 3.4.15.1) extracted from rabbit lung (Oryctolagus cuniculus, UniProt P12822).
T1 construct: extracted from rabbit lung; purchased Sigma Chemical Co. (St. Louis, MO, USA); host or cells: rabbit lung tissue
T1 sequence (P12822 34-1310): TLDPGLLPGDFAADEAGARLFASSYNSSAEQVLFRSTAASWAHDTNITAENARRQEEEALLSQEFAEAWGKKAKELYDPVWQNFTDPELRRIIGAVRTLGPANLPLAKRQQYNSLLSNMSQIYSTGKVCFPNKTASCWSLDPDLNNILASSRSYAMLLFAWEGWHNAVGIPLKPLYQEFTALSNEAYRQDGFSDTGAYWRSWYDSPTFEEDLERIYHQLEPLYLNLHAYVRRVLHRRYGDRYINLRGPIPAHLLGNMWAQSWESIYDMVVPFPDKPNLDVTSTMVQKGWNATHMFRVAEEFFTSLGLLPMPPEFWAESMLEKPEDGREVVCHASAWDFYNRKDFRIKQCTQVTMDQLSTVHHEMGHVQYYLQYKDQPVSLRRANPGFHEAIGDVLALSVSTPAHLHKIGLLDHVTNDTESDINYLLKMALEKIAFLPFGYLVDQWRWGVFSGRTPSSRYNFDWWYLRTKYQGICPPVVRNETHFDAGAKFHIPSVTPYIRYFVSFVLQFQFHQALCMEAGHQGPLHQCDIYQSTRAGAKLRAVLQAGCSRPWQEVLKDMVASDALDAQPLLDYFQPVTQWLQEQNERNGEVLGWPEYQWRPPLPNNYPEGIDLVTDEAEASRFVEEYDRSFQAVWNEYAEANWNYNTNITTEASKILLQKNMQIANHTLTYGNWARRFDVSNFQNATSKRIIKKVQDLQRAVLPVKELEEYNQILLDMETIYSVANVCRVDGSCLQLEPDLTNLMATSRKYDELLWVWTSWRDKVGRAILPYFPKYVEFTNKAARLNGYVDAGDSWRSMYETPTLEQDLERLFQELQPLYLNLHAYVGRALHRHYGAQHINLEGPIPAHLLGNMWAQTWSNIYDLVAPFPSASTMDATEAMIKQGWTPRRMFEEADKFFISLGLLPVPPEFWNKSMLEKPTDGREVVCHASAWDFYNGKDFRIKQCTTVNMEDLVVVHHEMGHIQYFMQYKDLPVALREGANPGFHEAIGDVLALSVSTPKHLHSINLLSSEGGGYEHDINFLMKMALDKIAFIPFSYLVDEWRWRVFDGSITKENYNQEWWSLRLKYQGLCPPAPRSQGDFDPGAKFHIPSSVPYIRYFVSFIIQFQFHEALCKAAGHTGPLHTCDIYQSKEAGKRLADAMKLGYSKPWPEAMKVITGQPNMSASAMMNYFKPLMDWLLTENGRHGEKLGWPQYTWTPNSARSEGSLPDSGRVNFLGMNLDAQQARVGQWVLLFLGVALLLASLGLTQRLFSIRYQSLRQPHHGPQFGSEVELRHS
As to the kind of experiment: ACE inhibitory activity assay, modified Cheung method (96-well plate, HHL, OPA fluorescence). In kind it is biochemical. Particulars: synthesized peptides identified from digested venison; mean ± SD of three repeated experiments; ND = not detectable. How it is done: The digested samples were centrifuged at 10,000× g for 15 min, and the supernatants were subjected to an ACE inhibitory assay. ACE inhibitory activity was measured using a previously reported method. ACE, a dipeptidyl carboxypeptidase (EC 3.4.15.1) extracted from rabbit lung, was obtained from Sigma Chemical Co. (St. Louis, MO, USA). Hippuryl-L-histidyl-L-leucine (HHL) (Nacalai Tesque) was used as the synthetic substrate. A 40 µL aliquot of each sample solution was added to 100 µL of borate buffer (containing 0.3 M NaCl, 5 mM HHL, pH 8.3) and incubated at 37 °C for 3 min. Then, 20 µL ACE solution (0.1 U mL^−1) was added to each sample solution, and the reaction mixture was incubated at 37 °C for 30 min. After that, the reaction was terminated using 250 µL of 1 M HCl, and hippuric acid was extracted by adding 1.5 mL of ethyl acetate and shaking. Eventually, mixtures were centrifuged at 1750× g for 10 min, 1 mL of supernatant was transferred into a test tube, and ethyl acetate was eliminated by heat evaporation at 95 °C. The precipitate was re-dissolved in 2 mL of deionized water and measured spectrophotometrically at 228 nm, using a UV-1800 spectrophotometer (Shimadzu, Kyoto, Japan). For the analysis of samples fractionated by reversed-phase chromatography, the synthetic peptides were assayed using the modified method reported by Cheung, et al.. Briefly, 50 µL of sample solution, 100 µL of the ACE 0.01 U/mL, and 20 µL of 25 mM HHL were mixed in a 96-well plate and incubated at 37 °C for 40 min. Subsequently, 100 µL of 1 M NaOH, 10 µL 0.2% OPA, and 15 µL 3.6 M phosphoric acid were added, and the fluorescence of samples was measured using the plate-reader POWERSCAN MX (DS Pharma Biomedical Co., Ltd., Osaka, Japan) at an excitation wavelength of 360 nm and emission wavelength of 460 nm. The inhibitory activity (%) was calculated as follows: inhibitory activity (%) = ((Ac – As)/(Ac – Ab)) × 100. Ac is the intensity of the control, as is the intensity of the sample, and Ab is the intensity of the blank. Data are expressed as the 50% inhibitory concentration (IC50) for each sample.

Experiment [2] concerns the target T2, angiotensin I-converting enzyme (ACE), a dipeptidyl carboxypeptidase (EC 3.4.15.1) extracted from rabbit lung (rabbit) (UniProt P12822).
T2 sequence: T1 sequence (P12822 34-1310)

Like-named read-outs stand apart in the source and are kept apart here. Marks after values point to notes of the source that are not given here. Where no end group is shown, it is not given here. [ ]: non-standard residue; d: D form.

Turning to DFHING, in the experiment with ACE, the “ACE inhibition IC50 values” is 64.3 µg/mL.
As to GFHI, in the experiment with ACE, the “ACE inhibition IC50 values” was 117 µg/mL.
Take GLSDGEWQ: the “ACE inhibition IC50 values” with ACE is 50.5 µg/mL.
By IC50 is commonly meant the concentration needed to halve the response being measured. The low end stands for higher potency, the high end for lower potency. “IKEVTER [IKEVTER, Isoleucine-Lysine- Glutamic Acid-Valine-Threonine-Glutamic Acid-Arginine]” gave an IC50 in experiment [1] of 99 µM.
Regarding TEAGATVTVK [TEAGATVTVK], the IC50 in experiment [1] was 214 µM.
For the molecule “VcNYVNWIQQTIAAN (V[code c]NYVNWIQQTIAAN; not fully specified; printed as VcNYVNWIQQTIAAN) [synthesized peptide identified from digested venison; origin Tropomyosin alpha-3 chain]”, the “Ace Inhibitory Activity (IC50)” value in experiment [1] is reported as 358.64 ± 64.71 ^a μg/mL.
For “mQGTLEDQIISANPLLEAFGNAK ([code m]QGTLEDQIISANPLLEAFGNAK; not fully specified; printed as mQGTLEDQIISANPLLEAFGNAK) [synthesized peptide identified from digested venison; origin Myosin-1]”, in experiment [1], the “Ace Inhibitory Activity (IC50)” value was 292.83 ± 38.27 ^a,b μg/mL.
Turning to TEAGATVTVK […], the ACE inhibitory activity (IC50; hydrolysis of hippuryl-L-histidyl-L-leucine by ACE, OPA fluorescence, 37 °C) in experiment [2] amounted to 359 µg/mL; in experiment [2] (record 2), 293 µg/mL; in experiment [2] (record 3), 86.5 µg/mL; in experiment [2] (record 4) it was 209 µg/mL.

(Values after publication PMC7555870, “Isolation, Evaluation, and Identification of Angiotensin I-Converting Enzyme Inhibitory Peptides from Game Meat” (Foods, 2020).)
